± gives the uncertainty stated by the source.
Experiment: self-splicing fitness, log relative to wild type (ln ratio); higher = more splicing; Tetrahymena group I intron in knt gene, E. coli kanamycin selection, DiMSum; sequences stand for … in CUCUCU…GGAGGGAAAAGUUAUCAGGCAUGCACCUGGUAGCUAGUCUUUAAACCAAUAGAUUGCAUCGGUUUAAAAGGCAAGACCGUCAAAUUGCGGGAAAGGGGUCAACAGCCGUUCAGUACCAAGUCUCAGGGGAAACUUUGAGAUGGCCUUGCAAAGGGUAUGGUAAUAAGCUGACGGACAUGGUCCUAACCACGCAGCCAAGUCCUAAGUCAACAGAUCUUCUGUUGAUAUGGAUGCAGUUCACAGACUAAAUGUCGGUCGGGGAAGAUGUAUUCUUCUCAUAAGAUAUAGUCGGACCUCUCCUUAAUGGGAGCUAGCGGAUGAAGUGAUGCAACACUGGAGCCGCUGGGAACUAAUUUGUAUGCGAAAGUAUAUUGAUUAGUUUUGGAGUACUCGUGGUCG
In short: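 DiMSum derived fitness as the error-weighted combination of fold changes across replicates, kanamycin versus no kanamycin, normalised to wild type. E. coli BL21(DE3) held the library, which randomised all eight P1ex-region intron nucleotides within the knt kanamycin-resistance gene on pET-22b(+). Six replicate transformations grew overnight at 37°C or 30°C on LB agar with or without 25 μg/mL kanamycin, also containing 100 μg/mL carbenicillin, 50 μM IPTG and 0.2% rhamnose, and pooled colonies were amplicon-sequenced on an Illumina HiSeq 2500.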

Row | Sequence | self-splicing fitness (ln) (30 °C) | self-splicing fitness (ln) (37 °C)
1 | CUUCAGCAAUAUUACGUUGC | -4.23 ± 0.3 | -3.04 ± 0.25
2 | GAUCAGCAAUAUUACGGAUU | -3.32 ± 0.24 | -2.52 ± 0.24
3 | CACUAGCAAUAUUACGAAGG | -1.65 ± 0.1 | -0.781 ± 0.15
4 | AGCAAGCAAUAUUACGUAGA | -2.83 ± 0.15 | -2.44 ± 0.2
5 | CGUUAGCAAUAUUACGGCAU | -2.01 ± 0.11 | -1.13 ± 0.12
6 | AACUAGCAAUAUUACGACGU | -0.165 ± 0.069 | 0.653 ± 0.1
7 | AAUCAGCAAUAUUACGUUUC | -2.83 ± 0.14 | -1.2 ± 0.13
8 | GACGAGCAAUAUUACGAAGA | -3.31 ± 0.27 | 
9 | GUCUAGCAAUAUUACGAGGU |  | -1.99 ± 0.4
10 | CUUGAGCAAUAUUACGGCAC | -2.5 ± 0.34 | -2.71 ± 0.39
11 | UGAUAGCAAUAUUACGAACG | -0.462 ± 0.15 | -0.0562 ± 0.2
12 | AGAUAGCAAUAUUACGGCUA | 0.0313 ± 0.1 | 0.162 ± 0.098
13 | AGCUAGCAAUAUUACGGCCU | -0.139 ± 0.073 | -0.106 ± 0.091
14 | UACAAGCAAUAUUACGUAGG | -4 ± 0.26 | -2.78 ± 0.27
15 | GAGCAGCAAUAUUACGGUGU | -2.84 ± 0.093 | -1.56 ± 0.09
16 | AUGAAGCAAUAUUACGAGUU | -2.19 ± 0.096 | -1.15 ± 0.1
17 | CCUAAGCAAUAUUACGCAAC | -3.08 ± 0.26 | -3.03 ± 0.4
18 | CGUUAGCAAUAUUACGAGUU | -2.98 ± 0.36 | -2.27 ± 0.45
19 | UACGAGCAAUAUUACGGUUU | -3.06 ± 0.17 | -2.32 ± 0.18
20 | CGGUAGCAAUAUUACGUUCA | -1.32 ± 0.13 | -0.963 ± 0.15
21 | CUCCAGCAAUAUUACGCUCU | -3.59 ± 0.31 | -3.04 ± 0.34
22 | UCCGAGCAAUAUUACGUCAA | -2.89 ± 0.26 | -2.27 ± 0.36
23 | UUAAAGCAAUAUUACGCAAC | -3.92 ± 0.25 | -1.75 ± 0.14
24 | CUGUAGCAAUAUUACGGUGU | -3.41 ± 0.12 | -2.88 ± 0.14
25 | UUUAAGCAAUAUUACGAUCA | -0.491 ± 0.1 | 0.00531 ± 0.11
26 | CGGAAGCAAUAUUACGCGGA | -2.73 ± 0.28 | -2.93 ± 0.43

Row | Sequence | self-splicing fitness (ln) (30 °C) | self-splicing fitness (ln) (37 °C)
27 | AUUCAGCAAUAUUACGUCGC | -2.74 ± 0.099 | -1.86 ± 0.11
28 | AAGAAGCAAUAUUACGCACG | -1.26 ± 0.082 | -0.749 ± 0.12
29 | UUGUAGCAAUAUUACGUCAA | -0.947 ± 0.16 | -0.538 ± 0.16
30 | UAGGAGCAAUAUUACGGGUU | -4.52 ± 0.42 | -2.56 ± 0.27
31 | UAGAAGCAAUAUUACGUGUC | -3.27 ± 0.22 | -2.31 ± 0.23
32 | CCAGAGCAAUAUUACGAUUU | -3.77 ± 0.35 | -3.59 ± 0.39
33 | UCCAAGCAAUAUUACGGACU | -3.5 ± 0.21 | -2.28 ± 0.18
34 | CCACAGCAAUAUUACGUUAC | -3.16 ± 0.21 | -2.17 ± 0.17
35 | UUGCAGCAAUAUUACGCACG | -1.2 ± 0.13 | -1.24 ± 0.12
36 | AGGGAGCAAUAUUACGGCAA | -3.52 ± 0.48 | -1.8 ± 0.27
37 | AAUGAGCAAUAUUACGUCGG | -3.31 ± 0.22 | -2.44 ± 0.4
38 | GAAUAGCAAUAUUACGGGAA | -2.97 ± 0.19 | -0.92 ± 0.1
39 | GCUUAGCAAUAUUACGAAUU | -1.06 ± 0.076 | -0.24 ± 0.097
40 | UGUCAGCAAUAUUACGAUCC | -1.48 ± 0.086 | -0.717 ± 0.089
41 | GAGCAGCAAUAUUACGUGAG | -2.06 ± 0.069 | -0.264 ± 0.07
42 | UCGAAGCAAUAUUACGACAA | -1.59 ± 0.14 | -1.07 ± 0.15
43 | UUAAAGCAAUAUUACGCUCU | -0.795 ± 0.15 | 0.21 ± 0.14
44 | CUCAAGCAAUAUUACGUGGG | -4.05 ± 0.17 | -2.85 ± 0.15
45 | CUGCAGCAAUAUUACGACCC | -3.76 ± 0.36 | -1.05 ± 0.48
46 | UAUAAGCAAUAUUACGGUGG | -1.67 ± 0.13 | -0.746 ± 0.13
47 | GACCAGCAAUAUUACGGUCC | -2.95 ± 0.17 | 
48 | UUAUAGCAAUAUUACGGCAC | -2.82 ± 0.36 | -2.51 ± 0.49
49 | UUACAGCAAUAUUACGAACG | -0.834 ± 0.1 | -0.112 ± 0.13
50 | UUACAGCAAUAUUACGCAAC | -3.55 ± 0.33 | -2.32 ± 0.27
51 | UGAGAGCAAUAUUACGUUGU | -3.89 ± 0.19 | -2.91 ± 0.23
52 | CCUGAGCAAUAUUACGUUCU | -3.63 ± 0.25 | -2.43 ± 0.25

Row | Sequence | self-splicing fitness (ln) (30 °C) | self-splicing fitness (ln) (37 °C)
53 | AUAUAGCAAUAUUACGACCC | -1.24 ± 0.28 | 
54 | UCAAAGCAAUAUUACGGGCA | -0.629 ± 0.063 | -0.273 ± 0.069
55 | CGCAAGCAAUAUUACGAUAA | -3.03 ± 0.19 | -1.51 ± 0.23
56 | CGGCAGCAAUAUUACGGUAG | -0.745 ± 0.076 | -0.0175 ± 0.074
57 | UUUGAGCAAUAUUACGGAUC | -3.24 ± 0.37 | -2.24 ± 0.44
58 | GCGCAGCAAUAUUACGUAUU | -0.596 ± 0.081 | -0.709 ± 0.099
59 | GACGAGCAAUAUUACGGAGC | -4.4 ± 0.39 | -2.27 ± 0.22
60 | ACAAAGCAAUAUUACGAUGG | -1.44 ± 0.08 | -0.402 ± 0.1
61 | GUACAGCAAUAUUACGGAGU | -3.06 ± 0.18 | -1.88 ± 0.15
62 | UAACAGCAAUAUUACGUCGG | -0.858 ± 0.066 | -0.53 ± 0.08
63 | CGUUAGCAAUAUUACGUUAA | -3.44 ± 0.23 | -3.24 ± 0.28
64 | ACCGAGCAAUAUUACGAAUU | -4.54 ± 0.39 | -1.89 ± 0.21
65 | CGAAAGCAAUAUUACGUCCA | -1.26 ± 0.12 | -0.276 ± 0.13
66 | CGGCAGCAAUAUUACGGAUG | -0.873 ± 0.075 | 0.507 ± 0.11
67 | UCAUAGCAAUAUUACGUUGG | -4.13 ± 0.46 | -1.05 ± 0.24
68 | UAGCAGCAAUAUUACGUCUC | -1.96 ± 0.17 | -0.915 ± 0.15
69 | ACCAAGCAAUAUUACGACAC | -1.29 ± 0.093 | -1.3 ± 0.13
70 | AGCCAGCAAUAUUACGGGUA | -1.59 ± 0.094 | -1.08 ± 0.092
71 | UUUUAGCAAUAUUACGUGAU | -2.76 ± 0.31 | -2.19 ± 0.32
72 | CUCGAGCAAUAUUACGACCU | -3.42 ± 0.25 | -3.53 ± 0.37
73 | GCUGAGCAAUAUUACGUGGA | -2.09 ± 0.19 | -2.9 ± 0.31
74 | UAGUAGCAAUAUUACGAGCG | -0.586 ± 0.095 | 0.438 ± 0.12
75 | UGCCAGCAAUAUUACGCUGU | -3.59 ± 0.37 | -1.37 ± 0.17
76 | GAUCAGCAAUAUUACGAGAA | -1.89 ± 0.17 | -1.16 ± 0.14

Reference: the supplement of paper PMC7877785
